Key:
[1] = biological target: TMD0^TAP1 L70C single-cysteine mutant (M553) (human); assay: cross-linking; crude membranes of M553 cells (tapasin-negative) transfected with single-Cys TMD0^TAP1 without tapasin; 1 mM Cu2+(phenanthroline)3, 10 min, 37 °C; non-reducing SDS-PAGE and immunoblot
[2] = biological target: tapasin (human), wild type, in HeLa cells (UniProt O15533); assay: co-immunoprecipitation with immunoblot densitometry; details: transient transfection of HeLa cells; IP via C-terminal c-Myc tag of TMD0TAP1; three independent experiments
Sequence of UniProt O15533 (O15533 21-448): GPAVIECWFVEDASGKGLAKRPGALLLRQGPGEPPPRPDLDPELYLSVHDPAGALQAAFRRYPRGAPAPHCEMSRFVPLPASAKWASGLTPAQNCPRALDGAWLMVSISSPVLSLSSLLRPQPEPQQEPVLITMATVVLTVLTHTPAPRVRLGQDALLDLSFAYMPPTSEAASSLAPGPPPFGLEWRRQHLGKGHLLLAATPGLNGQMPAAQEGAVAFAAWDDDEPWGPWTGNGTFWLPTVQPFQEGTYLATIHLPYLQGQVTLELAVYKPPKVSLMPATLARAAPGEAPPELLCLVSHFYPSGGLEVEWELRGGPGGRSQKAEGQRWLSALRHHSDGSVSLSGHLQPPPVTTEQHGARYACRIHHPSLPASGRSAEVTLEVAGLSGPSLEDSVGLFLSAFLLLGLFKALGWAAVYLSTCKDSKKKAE

[3] = biological target: TMD0^TAP1 V67C single-cysteine mutant (M553) (human); assay: cross-linking; crude membranes of M553 cells (tapasin-negative) transfected with single-Cys TMD0^TAP1 without tapasin; 1 mM Cu2+(phenanthroline)3, 10 min, 37 °C; non-reducing SDS-PAGE and immunoblot
[4] = biological target: TMD0^TAP1 L68C single-cysteine mutant (M553) (human); assay: as above
[5] = biological target: TMD0^TAP1 W69C single-cysteine mutant (M553) (human); assay: as above
[6] = biological target: TMD0^TAP1 V34C single-cysteine mutant (M553) (human); assay: as above
[7] = biological target: TMD0^TAP1 W33C single-cysteine mutant (M553) (human); assay: as above
[8] = biological target: TMD0^TAP1 L107C single-cysteine mutant (M553) (human); assay: as above

Substance	response [2] [%]	other results
TMD0^TAP1 L70C single-cysteine mutant (M553) (domain or fragment)	–	stoichiometry N [1]: 2
TMD0^TAP1, parent of the single-cysteine mutants (Cys-less TAP background) V67C	19	–
TMD0^TAP1, parent of the single-cysteine mutants (Cys-less TAP background) P149C	86	–
TMD0^TAP1 V67C single-cysteine mutant (M553) (domain or fragment)	–	stoichiometry N [3]: 2
TMD0^TAP1, parent of the single-cysteine mutants (Cys-less TAP background) A31C	22	–
TMD0^TAP1, parent of the single-cysteine mutants (Cys-less TAP background) A106C	42	–
TMD0^TAP1, parent of the single-cysteine mutants (Cys-less TAP background) W69C	81	–
TMD0^TAP1 L68C single-cysteine mutant (M553) (domain or fragment)	–	stoichiometry N [4]: 2
TMD0^TAP1 W69C single-cysteine mutant (M553) (domain or fragment)	–	stoichiometry N [5]: 2
TMD0^TAP1, parent of the single-cysteine mutants (Cys-less TAP background) L148C	12	–
TMD0^TAP1, parent of the single-cysteine mutants (Cys-less TAP background) L105C	26	–
TMD0^TAP1, parent of the single-cysteine mutants (Cys-less TAP background) L70C	27	–
TMD0^TAP1, parent of the single-cysteine mutants (Cys-less TAP background) L68C	51	–
TMD0^TAP1, parent of the single-cysteine mutants (Cys-less TAP background) W33C	9	–
TMD0^TAP1, parent of the single-cysteine mutants (Cys-less TAP background) A151C	47	–
TMD0^TAP1, parent of the single-cysteine mutants (Cys-less TAP background) D32C	0	–
TMD0^TAP1, parent of the single-cysteine mutants (Cys-less TAP background) A150C	25	–
TMD0^TAP1 V34C single-cysteine mutant (M553) (domain or fragment)	–	stoichiometry N [6]: 2
TMD0^TAP1, parent of the single-cysteine mutants (Cys-less TAP background) L107C	46	–
TMD0^TAP1, parent of the single-cysteine mutants (Cys-less TAP background) V34C	17	–
TMD0^TAP1 W33C single-cysteine mutant (M553) (domain or fragment)	–	stoichiometry N [7]: 2
TMD0^TAP1 L107C single-cysteine mutant (M553) (domain or fragment)	–	stoichiometry N [8]: 2
TMD0^TAP1, parent of the single-cysteine mutants (Cys-less TAP background) P108C	29	–

From publication PMC4661472
